Reference: publication PMC10779274
Several values for one entry are separate records, joined by “and”; a condition that tells them apart may be missing. Equal values may be shown once.

Columns and labels:
[1] = target: Lsm protein of Haloferax mediterranei (Haloferax mediterranei); test: SEC; HiPrep 16/60 Sephacryl S-200 HR, 20 mM Tris-HCl pH 7.5, 1 M NaCl, 0.5 mL/min, calibrated with protein standards; without RNA
[2] = target: Lsm protein of Haloferax mediterranei (Haloferax mediterranei); test: SEC; HiPrep 16/60 Sephacryl S-200 HR, 20 mM Tris-HCl pH 7.5, 0.5 M NaCl, 0.5 mL/min, calibrated with protein standards; without RNA; peaks checked by Western blot with anti-Lsm
[3] = target: Lsm protein of Haloferax mediterranei (Haloferax mediterranei); test: SEC; HiPrep 16/60 Sephacryl S-200 HR, 20 mM Tris-HCl pH 7.5, 1.5 M NaCl, 0.5 mL/min, calibrated with protein standards; without RNA; peaks checked by Western blot with anti-Lsm
[4] = target: Lsm protein of Haloferax mediterranei (Haloferax mediterranei); test: SEC; HiPrep 16/60 Sephacryl S-200 HR, 20 mM Tris-HCl pH 7.5, 2 M NaCl, 0.5 mL/min, calibrated with protein standards; without RNA

Substance: Lsm protein of Haloferax mediterranei (natural protein)
- stoichiometry N [1]: 36 subunits
- stoichiometry N [2]: 36 subunits
- stoichiometry N [3]: 72 subunits and 36 subunits
- stoichiometry N [4]: 36 subunits
